From patent publication US11220682B2 (SOGANG UNIVERSITY RESEARCH & BUSINESS DEVELOPMENT FOUNDATION, priority 2017, dated 2022)

Legend:
Assay type in all cases: cell-based, E. coli
bacterial cell growth = experiment: Bacterial cell growth / cell density in growth medium
Description: The starter culture (2 mL) was transferred to a limiting medium (100 mL) (50 mM Na2HPO4, 50 mM KH2PO4, 50 mM (NH4)2504, 2 mM MgSO4, 0.1% trace metals, 0.5% glycerol, 0.05% glucose, and 5% amino acids, and pH 7.25) supplemented with ampicillin (100 μg/mL), chloramphenicol (35 μg/mL), 100 μM pyruvate, 10 mM catechol, and 300 μM DTT at 30° C. Protein expression was induced by adding 0.2% L-arabinose when the optical density reached 0.8, and the culture was cultured overnight at 30° C.
A simple solution was to maximize the concentrations of catechol, pyruvate, and ammonia in a growth medium. […] In the growth medium, 50 mM pyruvate and 25 mM ammonia were added as starting materials together with various concentrations (0 mM to 10 mM) catechol.

emGFP-E90DOPA = experiment: MALDI-TOF MS analysis of tryptic digest of emGFP-E90DOPA, specificity of incorporation; settings: 3 mM L-DOPA, position 90
Excerpt: A wild-type emGFP gene was obtained from commercially available sources by gene synthesis, amplified by PCR, and inserted between the BspHI and KpnI sites of pBAD/Myc-His (Invitrogen) to generate pBAD-emGFP (SEQ ID NO: 10). An amber codon (TAG) was incorporated at position 39 or 90 in the emGFP by site-specific mutants. A plasmid containing each amber codon was incorporated into E. coli DH10 used as a prokaryote host cell with pEvol-DOPA-RS1 (SEQ ID NO: 6), pEvol-DOPA-RS2 (SEQ ID NO: 7), or pEvol-DOPA-RS (SEQ ID NO: 8) to co-transform the E. coli DH10 (Comparative Example 1: […], Example 1: DOPA-RS1, Example 2: DOPA-RS2). Cells were amplified in an LB medium (lysogeny broth) supplemented with ampicillin (100 μg/mL) and chloramphenicol (35 μg/mL). […] Protein expression was induced by adding 0.2% L-arabinose when the optical density reached 0.8, and the culture was cultured overnight at 37° C. […] Protein concentrations were calculated by measuring absorbance at 280 nm and using the calculated extinction coefficient (2.2×10^4 cm^−1M^−1 for emGFP). […]
In order to express an emGFP-E90DOPA mutant, the expressed protein was purified, followed by tryptic degradation and then evaluated by MALDI-TOF (matrix-assisted laser desorption/ionization-time of flight) MS analysis (FIG. 2). […]

[1] = tested on: emGFP containing an amber mutation (TAG) at position 39 or 90; experiment: emGFP fluorescence from cytolysate, efficiency of genetic incorporation of L-DOPA; settings: all L-DOPA concentrations (1 mM to 3 mM), positions 39 and 90 of emGFP
Excerpt: A wild-type emGFP gene was obtained from commercially available sources by gene synthesis, amplified by PCR, and inserted between the BspHI and KpnI sites of pBAD/Myc-His (Invitrogen) to generate pBAD-emGFP (SEQ ID NO: 10). An amber codon (TAG) was incorporated at position 39 or 90 in the emGFP by site-specific mutants. A plasmid containing each amber codon was incorporated into E. coli DH10 used as a prokaryote host cell with pEvol-DOPA-RS1 (SEQ ID NO: 6), pEvol-DOPA-RS2 (SEQ ID NO: 7), or pEvol-DOPA-RS (SEQ ID NO: 8) to co-transform the E. coli DH10 (Comparative Example 1: […], Example 1: DOPA-RS1, Example 2: DOPA-RS2). Cells were amplified in an LB medium (lysogeny broth) supplemented with ampicillin (100 μg/mL) and chloramphenicol (35 μg/mL). […] Protein concentrations were calculated by measuring absorbance at 280 nm and using the calculated extinction coefficient (2.2×10^4 cm^−1M^−1 for emGFP).
Cells (2×10^9) were harvested by centrifugation at 10,000 rpm and 4° C. for 5 minutes, and cell pellets were lysed for 1 hour with Bugbuster (Novagen) (50 μL) supplemented with benzonase (Sigma) ([…]). The cytolysate was removed by centrifugation at 13,000 rpm and 4° C. for 10 minutes, and the supernatant was directly used for fluorescence measurement. Fluorescence was measured at 510 nm with excitation at 487 nm. […]

Row | Molecule | toxicity (bacterial cell growth; 10 mM catechol) | concentration that inhibited bacterial cell growth (bacterial cell growth; preliminary test, growth medium) | incorporation of tyrosine (emGFP-E90DOPA) | efficiency in incorporation of L-DOPA (emGFP expression), rank order [1]
1 | Oc1ccccc1O [catechol] | a reasonable toxicity was observed | more than 8 mM |  | 
2 | DOPA-RS2 (protein, Artificial DOPA_RS-2 Sequence) MDEFEMIKRNTSEIISEEELREVLEKDEKSALIGFEPSGKIHLGHYLQIKKMIDLQNAGFDIIILLSDLNAYLNQKGELDEIRKIGDYNKKVFEAMGLKAKYVYGSEFQLDKDYTLNVYRLALKTTLKRARRSMELIAREDENPKVAEVIYPIMQVNDIHYLGVDVLVGGMEQRKIHMLARELLPKKVVCIHNPVLTGLDGEGKMSSSKGNFIAVDDSPEEIRAKIKKAYCPAGVVEGNPIMEIAKYFLEYPLTIKRPEKFGGDLTVNSYEELESLFKNKELHPMDLKNAVAEELIKILEPIRKRL |  |  | not detected | DOPA-RS2>DOPA-RS1>DOPA-RS
3 | DOPA-RS1 (protein, Artificial DOPA_RS-1 Sequence) MDEFEMIKRNTSEIISEEELREVLEKDEKSALIGFEPSGKIHLGHYLQIKKMIDLQNAGFDIIILLSDLNAYLNQKGELDEIRKIGDYNKKVFEAMGLKAKYVYGSEFQLDKDYTLNVYRLALKTTLKRARRSMELIAREDENPKVAEVIYPIMQVNDIHYLGVDVNVGGMEQRKIHMLARELLPKKVVCIHNPVLTGLDGEGKMSSSKGNFIAVDDSPEEIRAKIKKAYCPAGVVEGNPIMEIAKYFLEYPLTIKRPEKFGGDLTVNSYEELESLFKNKELHPMDLKNAVAEELIKILEPIRKRL |  |  | not detected | DOPA-RS2>DOPA-RS1>DOPA-RS
